# Measurements taken from US20110002926A1.
# What was measured:
# [1] = molecular target: soluble HCV E2 (sE2661), HIS-tagged, baculovirus expressed (Hepatitis C virus (genotype not stated)); assay: BIAcore SPR
# [2] = molecular target: soluble HCV E2 (sE2661), HIS-tagged, baculovirus expressed (Hepatitis C virus (genotype not stated)); assay: BIAcore SPR, sE2 injected over antibody; lower end differs from Table 10
# [3] = molecular target: soluble HCV E2 (sE2661), HIS-tagged, baculovirus expressed (Hepatitis C virus (genotype not stated)); assay: BIAcore SPR, sE2 injected over antibody
# [4] = molecular target: HCV E1E2 glycoproteins of genotype 1b (Con1) (Hepatitis C virus genotype 1b (Con1)) (UniProt Q9WMX2); assay: cell-based or functional assay
# Sequence of HCV E1E2 glycoproteins of genotype 1b (Con1) (Hepatitis C virus genotype 1b (Con1)) (Q9WMX2 384-746 limits assumed, chain 1 of 2): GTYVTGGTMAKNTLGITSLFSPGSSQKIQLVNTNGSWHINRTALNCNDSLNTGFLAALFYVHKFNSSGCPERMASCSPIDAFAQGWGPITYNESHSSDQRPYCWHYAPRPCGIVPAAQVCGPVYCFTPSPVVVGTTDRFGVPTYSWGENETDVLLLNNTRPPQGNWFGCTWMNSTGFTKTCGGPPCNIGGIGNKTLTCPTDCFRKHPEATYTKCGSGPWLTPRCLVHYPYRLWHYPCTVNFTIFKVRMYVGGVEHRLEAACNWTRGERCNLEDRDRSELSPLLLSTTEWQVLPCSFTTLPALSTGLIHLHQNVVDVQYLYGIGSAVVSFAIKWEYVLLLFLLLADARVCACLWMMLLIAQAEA
# Sequence of HCV E1E2 glycoproteins of genotype 1b (Con1) (Hepatitis C virus genotype 1b (Con1)) (Q9WMX2 192-383 limits assumed, chain 2 of 2): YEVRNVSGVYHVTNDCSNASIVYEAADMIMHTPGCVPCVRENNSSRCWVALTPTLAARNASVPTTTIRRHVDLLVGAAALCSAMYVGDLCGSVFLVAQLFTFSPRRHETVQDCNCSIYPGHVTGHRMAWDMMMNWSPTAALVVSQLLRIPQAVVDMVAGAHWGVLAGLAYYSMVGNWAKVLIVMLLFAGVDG
# [5] = molecular target: HCV E1E2 glycoproteins of genotype 2a (J6) (Hepatitis C virus genotype 2a (J6)) (UniProt P26660); assay: cell-based or functional assay
Kd [1],Substance,Kd [2],Kd [3],EC50 of HCVpp entry into Huh-7.5 cells (luciferase) [4],EC50 of HCVpp entry into Huh-7.5 cells (luciferase) [5]
50 nM,AP33 Fab,–,–,–,–
–,AP33 monoclonal antibody,0.5 to 8 nM,5 to 8 nM,1.42 µg/mL,2.07 µg/mL
